Consider 1 molecule from patent publication US20140178389A1 (AbbVie / Abbott, published 2014).

As a reminder, the Kd is the free concentration of one partner at which half of the binding sites on the other are occupied at equilibrium, for simple one-to-one binding. In general, koff refers to the rate constant with which the complex falls apart. The term kon denotes the rate constant with which the complex forms.

The target in experiment [1] is T1, recombinant human IL-1β (human, UniProt P01584 117-269).
T1 construct: It was biotinylated in the ELISA and in the yeast display experiments; also called Hu IL-1beta; huIL-1b
As to the kind of experiment: SPR (BIAcore); KD calculated assuming an off-rate of 1x10^-6. As for the experimental part: (§1) Goat IgGs specific to human IgG Fc were covalently linked to the carboxy methyl dextran matrix on the CMS biosensor chip via free amine groups using an amine coupling kit and the immobilization wizard option in the Biacore instruments controlling software. Specifically, carboxyl groups of the dextran matrix on the chip were activated with NHS and EDC. Goat anti-human IgG Fc antibodies (25 μg/mL), diluted in 10 mM sodium acetate, pH 4.5, were injected across the activated surface. Once the level of binding response reached the desired value, unreacted groups were deactivated by injection of 1M ethanolamine. For binding of IL-1α & IL-1β to captured Ig, a 1 μg/mL concentration of Ig in HBS-EP+ was injected over the goat anti-human IgG Fc surface at a flow rate of 10 μL/min for 1 minute. The net difference in the baseline signal and the signal after the completion of the Ig injection was taken to represent the amount of bound Ig.
(§2) The potency of the 5 DVD-Igs containing affinity matured h1B12.1 domains to recombinant and native IL-1 antigens was determined using the MRC-5 bioassay as shown in Table 24. The binding kinetics of the DVD-Igs to recombinant human and cynomolgus IL-1α and IL-1β were determined using surface plasmon resonance. In some cases, the off-rate could not be determined as they reached the limit of detection of the instrument.

The target of experiment [2] is T2, recombinant human IL-1α (human, UniProt P01583 113-271).
T2 construct: also called Hu IL-1alpha; hIL-1α
T2 sequence: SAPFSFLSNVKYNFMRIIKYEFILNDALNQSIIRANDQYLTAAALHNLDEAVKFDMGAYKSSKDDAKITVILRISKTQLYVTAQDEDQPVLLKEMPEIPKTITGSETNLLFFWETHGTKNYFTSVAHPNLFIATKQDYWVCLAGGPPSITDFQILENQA
Kind of experiment: SPR (BIAcore), DVD-Ig captured via goat anti-human IgG Fc. On the procedure:
as §1, §2
Background: Surface plasmon resonance follows binding to a sensor surface in real time, without labels.

In experiment [3] the target is T3, recombinant cynomolgus IL-1β (cynomolgus, UniProt P79182 117-268).
T3 construct: It was biotinylated in the ELISA and in the yeast display experiments; also called Cyno IL-1β; Cyno IL-1beta
T3 sequence (looked up): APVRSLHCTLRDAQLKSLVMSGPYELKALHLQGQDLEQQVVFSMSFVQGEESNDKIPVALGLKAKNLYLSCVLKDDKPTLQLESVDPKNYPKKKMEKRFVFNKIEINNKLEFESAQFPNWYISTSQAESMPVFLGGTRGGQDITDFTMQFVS
The experiment is described as above. On the procedure: as §1, §2

For experiment [4], the target named is T4, recombinant cynomolgus IL-1α (cynomolgus, UniProt P79340 113-271).
T4 construct: also called Cyno IL-1α; Cyno IL-1alpha
T4 sequence (looked up): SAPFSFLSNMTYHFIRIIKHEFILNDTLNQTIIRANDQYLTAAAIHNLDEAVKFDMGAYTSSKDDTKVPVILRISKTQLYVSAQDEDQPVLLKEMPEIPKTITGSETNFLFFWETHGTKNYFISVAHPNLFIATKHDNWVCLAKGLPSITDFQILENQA
Described as above. On the procedure:
as §1, §2

Experiment [5] has as its target T1, recombinant human IL-1β. Described as above. As for the experimental part:
as §1, §2

Experiment [6] has as its target T1, recombinant human IL-1β. As to the kind of experiment: SPR (BIAcore); the off-rate reached the limit of detection of the instrument. On the procedure:
as §1, §2

For experiment [7], the target named is T2, recombinant human IL-1α. As to the kind of experiment: cell-based or functional assay.
For experiment [8], the target named is T3, recombinant cynomolgus IL-1β. As to the kind of experiment: cell-based or functional assay.
Experiment [9] has as its target T4, recombinant cynomolgus IL-1α. As to the kind of experiment: cell-based or functional assay.
In experiment [10] the target is T1, recombinant human IL-1β. Kind of experiment: cell-based or functional assay.
Experiment [11] addresses purified native human IL-1β (human, UniProt P01584 117-269). Kind of experiment: cell-based or functional assay.
For experiment [12], the target named is T5, native human IL-1α present in crude supernatants (human, UniProt P01583 113-271, limits assumed).
T5 sequence (looked up): T2 sequence
As to the kind of experiment: cell-based or functional assay.

B1: DVD3-h1B12.34-SS-X3, human anti-IL-1α/β DVD IgG1/k mut (234,235) (bispecific antibody)
heavy: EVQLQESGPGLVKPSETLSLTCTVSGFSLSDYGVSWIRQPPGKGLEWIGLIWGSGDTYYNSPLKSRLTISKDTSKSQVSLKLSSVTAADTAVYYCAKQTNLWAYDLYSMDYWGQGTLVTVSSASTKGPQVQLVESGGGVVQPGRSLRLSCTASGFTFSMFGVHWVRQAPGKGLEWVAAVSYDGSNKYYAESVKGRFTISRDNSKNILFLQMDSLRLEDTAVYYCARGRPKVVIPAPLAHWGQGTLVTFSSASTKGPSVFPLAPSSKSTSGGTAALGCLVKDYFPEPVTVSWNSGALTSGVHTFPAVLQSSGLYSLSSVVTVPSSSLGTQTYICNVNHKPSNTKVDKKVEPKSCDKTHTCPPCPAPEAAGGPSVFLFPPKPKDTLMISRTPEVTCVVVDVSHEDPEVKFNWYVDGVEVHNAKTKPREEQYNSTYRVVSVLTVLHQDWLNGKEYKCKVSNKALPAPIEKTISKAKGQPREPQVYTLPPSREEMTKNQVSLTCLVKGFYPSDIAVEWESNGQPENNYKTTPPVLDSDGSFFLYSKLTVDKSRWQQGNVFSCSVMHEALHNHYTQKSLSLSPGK
light: DIQMTQSPSSLSASVGDRVTITCQASQDIDDDLNWYQQKPGKAPKLLISLASILRPGVPSRFSGSGSGTDFTFTISSLQPEDFATYYCLQSDSFPLTFGQGTKLEIKRTVAAPDIQMTQSPSSVSASVGDRVTITCRASQGISSWLAWYQQKPGKAPKLLIYEASNLETGVPSRFSGSGSGSDFTLTISSLQPEDFATYYCQQTSSFLLSFGGGTKVEHKRTVAAPSVFIFPPSDEQLKSGTASVVCLLNNFYPREAKVQWKVDNALQSGNSQESVTEQDSKDSTYSLSSTLTLSKADYEKHKVYACEVTHQGLSSPVTKSFNRGEC
notes: also called PR-1358318
For B1, the Kd with recombinant human IL-1β [1] was < 0.026 pM; with recombinant human IL-1α [2], 30 pM; in [3] it was 0.67 pM; in experiment [4] it was 2300 pM. In addition, the koff with recombinant human IL-1α [2] was 4.2e-06 s⁻¹; in experiment [3] it was 1.2e-05 s⁻¹; in experiment [4], 0.00024 s⁻¹; in the experiment with recombinant human IL-1β [6] it was < 1e-06 s⁻¹. Moreover, the kon was 140000 M⁻¹ s⁻¹ in the experiment with recombinant human IL-1α [2], 1.8e+07 M⁻¹ s⁻¹ in experiment [3], 100000 M⁻¹ s⁻¹ in experiment [4] and 3.9e+07 M⁻¹ s⁻¹ with recombinant human IL-1β [5]. Moreover, the “Potency (IC50) pM, MRC-5 bioassay” value with recombinant human IL-1α [7] stood at 41.3 pM; in [8], 2.13 pM; in experiment [9], 1900 pM; with recombinant human IL-1β [10], 42.2 pM; in experiment [11], 0.998 pM; in experiment [12], 50.4 pM.
